Assay results: paper PMC11432991

Test system: MexT-(His)6 (Pseudomonas poae PMA22)
Assay: EMSA
Conditions: 10 mM MgCl2, 5.4-134.5 ng MexT, 1 nM probe, EMSA: 20 mM Tris-HCl pH 8, 150 mM KCl, 10 mM MgCl2, 10% glycerol, 2 mM beta-mercaptoethanol, 50 ug/mL BSA, 9 uL, 20 min room temperature, 5% PAGE in 0.5x TBE

Pa promoter probe showed a binding signal (scale: fold of Pi affinity) of 0.33.

For Pi promoter probe, the binding signal (fold higher affinity than Pa probe) was 3.
